Experimental data as given in paper doi:10.1101/2025.11.15.688598 (bioRxiv, 2025).

What was measured:
[1] = target: T1, Cy5-labeled proliferating cell nuclear antigen (PCNA) (human, UniProt P12004 1-261, Cy5 maleimide on cysteine(s), positions not stated); test: single-molecule two-colour fluorescence imaging (Cy3-Cy5 co-localisation, Cy3 photobleaching steps); Cy5-PCNA loaded by RFC on bi-biotinylated lambda DNA on the DNA skybridge; 1 μM PAF15-Cy3 in reaction buffer incubated 10 min, unbound washed out; images 10-15 min after the start of washing; 150 mM potassium glutamate; room temperature (approximately 22°C); conditions: both partners purified
[2] = target: T1, Cy5-labeled proliferating cell nuclear …; test: single-molecule two-colour fluorescence imaging (Cy3-Cy5 co-localisation, FRET, Cy3 photobleaching steps); Cy5-PCNA loaded by RFC on bi-biotinylated lambda DNA on the DNA skybridge; 1 μM PAF15-Cy3 in reaction buffer incubated 10 min, unbound washed out; images 10-15 min after the start of washing; 100 mM potassium glutamate; room temperature (approximately 22°C); conditions: both partners purified

T1 sequence (P12004 whole entry): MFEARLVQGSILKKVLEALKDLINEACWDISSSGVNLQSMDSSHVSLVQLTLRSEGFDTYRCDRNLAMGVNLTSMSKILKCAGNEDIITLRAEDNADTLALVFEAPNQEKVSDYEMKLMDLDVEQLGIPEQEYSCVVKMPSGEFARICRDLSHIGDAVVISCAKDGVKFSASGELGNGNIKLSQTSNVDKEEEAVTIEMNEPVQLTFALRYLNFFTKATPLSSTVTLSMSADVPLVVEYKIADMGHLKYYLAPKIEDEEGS

B1: Cy3-labeled PAF15 (Cys54Ser variant, Cy3 at Cys99) (natural protein, human, UniProt Q15004 2-111, looked up)
chain: VRTKADSVPGTYRKVVAARAPRKVLGSSTSATNSTSVSSRKAENKYAGGNPVSVRPTPKWQKGIGEFFRLSPKDSEKENQIPEEAGSSGLGKAKRKACPLQPDHTNDEKE
modifications: Cy3 on Cys99 (maleimide-thiol reaction)
stoichiometry N [1]: 1 PAF15 per PCNA ring | stoichiometry N [2]: 2 PAF15 per PCNA ring
